Here are results for 5 substances from publication PMC7042713.

Common to all, as to experiment: SEC-MALS
For orientation: SEC sorts molecules by how far they enter the pores of the column.

Test [1] deals with BhDIX K82A. Conditions: monomer mass of BhDIX printed in panel as 24kD; parent: 90.
Test [2] deals with CpDIX D67A. Conditions: monomer mass of CpDIX printed in panel as 22kD; parent: 90.
Test [3] has as its target BhDIX Y10A. Conditions: parent: est. 9.0e4; read off a plot.
For test [4], the target named is AtSOK1 DIX domain D78A. Conditions: 2mg/ml D78A; parent value is 2mg/ml wt; calculated monomer mass of AtSOK1 DIX 25 kD (panel A); parent: 87.
In test [5] the target is BhDIX L8A. Conditions: parent: est. 9.0e4; read off a plot.

Take Blastocystis hominis DIX domain K82A: the other: observed molar mass (SEC-MALS, self-association) in test [1] worked out at 23 kD. Cryptosporidium parvum DIX domain D67A: in test [2], the other: observed molar mass (SEC-MALS, self-association) is 22 kD. Consider Blastocystis hominis DIX domain Y10A, for which the other: observed molar mass (SEC-MALS, self-association) in test [3] was 35000 g/mol.

For the substance “AtSOK1 DIX domain (Arabidopsis thaliana SOSEKI1), wild type D78A”, the other: observed molar mass (SEC-MALS, self-association) in test [4] was 25 kD. Consider Blastocystis hominis DIX domain L8A, for which the other: observed molar mass (SEC-MALS, self-association) in test [5] was 55000 g/mol.
